Columns and labels:
[1] = molecular target: <EGFR> Hb-Lw; experiment: SPR; monovalent (affinity) set-up: antibody captured via anti-hFc on CM5 chip, huEGFR ECD as analyte 19-300 nM; Biacore T200, HBS-P+ pH 7.4, 25 °C; 1:1 Langmuir model
[2] = molecular target: <EGFR> Ha-Lw; experiment: as above
[3] = molecular target: <EGFR> Hw-La; experiment: as above
[4] = molecular target: <Her2/neu> Hg-Lw; experiment: SPR; monovalent (affinity) set-up: antibody captured via anti-hFc on CM5 chip, huHer2 ECD as analyte 19-300 nM; Biacore T200, HBS-P+ pH 7.4, 25 °C; 1:1 Langmuir model
Sequence of <Her2/neu> Hg-Lw (heavy, as listed by the source, chain 1 of 2): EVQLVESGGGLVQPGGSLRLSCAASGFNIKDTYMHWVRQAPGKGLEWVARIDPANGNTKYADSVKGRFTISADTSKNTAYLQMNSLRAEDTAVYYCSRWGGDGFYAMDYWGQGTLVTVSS
Sequence of <Her2/neu> Hg-Lw (light, as listed by the source, chain 2 of 2): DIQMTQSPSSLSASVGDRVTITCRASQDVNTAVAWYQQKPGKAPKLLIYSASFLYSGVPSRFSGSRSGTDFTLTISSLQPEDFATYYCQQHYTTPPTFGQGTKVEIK

[5] = molecular target: <Her2/neu> Hb-Lw; experiment: as above
Sequence of <Her2/neu> Hb-Lw (heavy, as listed by the source, chain 1 of 2): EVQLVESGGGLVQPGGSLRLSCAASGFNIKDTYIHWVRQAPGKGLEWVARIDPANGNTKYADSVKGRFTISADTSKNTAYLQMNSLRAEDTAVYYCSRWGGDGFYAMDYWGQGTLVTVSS

[6] = molecular target: <Her2/neu> Hg-Lg; experiment: as above
Sequence of <Her2/neu> Hg-Lg (light, as listed by the source, chain 2 of 2): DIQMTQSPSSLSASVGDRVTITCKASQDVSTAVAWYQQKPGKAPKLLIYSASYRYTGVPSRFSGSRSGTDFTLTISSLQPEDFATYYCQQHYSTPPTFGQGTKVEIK

[7] = molecular target: <Her2/neu> Ha-Lw; experiment: as above
Sequence of <Her2/neu> Ha-Lw (heavy, as listed by the source, chain 1 of 2): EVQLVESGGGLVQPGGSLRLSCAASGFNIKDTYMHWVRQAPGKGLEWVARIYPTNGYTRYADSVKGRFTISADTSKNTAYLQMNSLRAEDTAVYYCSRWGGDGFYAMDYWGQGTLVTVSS

| Kd [1] [nM] | Kd [2] [nM] | Kd [3] [nM] | Kd [4] [nM] | Kd [5] [nM] | Kd [6] [nM] | Kd [7] [nM] | Substance |
| --- | --- | --- | --- | --- | --- | --- | --- |
| 0.66 | 0.73 | 3.5 |  |  |  |  | huEGFR ECD (from UniProt P00533 25-645) (domain or fragment) |
|  |  |  | 340 | 390 | 390 | 2.1 | huHer2 ECD (from UniProt P04626 23-652) (domain or fragment) |

Reference: publication PMC6784197
